Biological target: T1, Nampt (nicotinamide phosphoribosyltransferase) (UniProt P43490 P43490:1-491)
Test: SPR; aptamer immobilized; 100 mM NaCl, 2 mM MgCl2, 5 mM KCl, 1 mM CaCl2, 20 mM Tris, 0.02% Tween 20, pH 7.6
Settings: tags: AdipoGen AG-40A-0031; chain copies: 2
Experimental: (§1) Aptamers G35, G40, and G55 had the highest specificity and binding force among the 15 kinds of aptamers specifically bound to Nampt and produced in Example 1. Binding of these aptamers with respect to Nampt was analyzed. The aptamers were immobilized onto a gold chip in the same manner as described above, and Nampt at various concentrations of 20 nM to 400 nM was reacted for 30 minutes in buffer solutions (100 mM NaCl, 2 mM MgCl₂, 5 mM KCl, 1 mM CaCl₂, and 20 mM Tris-Cl buffer solution containing 0.02% Tween 20, pH 7.6). In order to obtain a dissociation constant, each reaction level was plotted by a nonlinear regression method and a single site saturation ligand binding method with Graphpad Prism 5.0. In this case, the equation Y=Bₘₐₓ*X̂h/(Kd̂h+X̂h) was used (y represents a saturation degree, Bₘₐₓ represents a maximal binding site, Kd represents a dissociation constant, X represents non-bound Nampt, and h represents a hill slope constant).

T1 sequence (P43490 whole entry, one chain of several): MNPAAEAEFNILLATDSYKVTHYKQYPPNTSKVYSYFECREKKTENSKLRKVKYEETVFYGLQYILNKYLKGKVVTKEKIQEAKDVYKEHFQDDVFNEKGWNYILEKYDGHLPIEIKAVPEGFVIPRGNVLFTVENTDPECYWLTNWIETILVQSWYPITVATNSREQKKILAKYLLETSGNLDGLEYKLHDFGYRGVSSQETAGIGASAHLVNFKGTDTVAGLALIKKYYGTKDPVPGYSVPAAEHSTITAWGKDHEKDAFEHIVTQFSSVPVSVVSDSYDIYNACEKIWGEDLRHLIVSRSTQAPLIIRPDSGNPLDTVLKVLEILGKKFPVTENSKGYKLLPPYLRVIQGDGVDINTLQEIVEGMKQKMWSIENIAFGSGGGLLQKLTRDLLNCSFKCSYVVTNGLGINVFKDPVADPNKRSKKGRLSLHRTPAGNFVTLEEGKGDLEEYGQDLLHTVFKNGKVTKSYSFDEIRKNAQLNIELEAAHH

Binder | Kd [nM]
G55 (ssDNA) DNA: CGTACGGAATTCGCTAGCGGACTGGAGTCTAGACCGGGTAGCTGTGGTGGATCCGAGCTCCACGTG | 71.7

Biological target: T1, Nampt (nicotinamide …)
Test: SPR; 200 nM Nampt
Settings: tags: AdipoGen AG-40A-0031; chain copies: 2
Experimental: An experiment showing that 15 kinds of aptamers strongly bound to Nampt were not bound to other blood proteins but specifically bound to Nampt only was carried out by immobilizing aptamers onto a gold chip with a surface […] resonance device (SPR).
Firstly, a carboxyl group (—COOH) was formed on a surface of a gold chip with 50 mM of 3,3′-dithiodipropionic acid, and a self-assembly monolayer was formed with EDC/NHS. Then, streptavidin was immobilized thereon, and each aptamer bound to biotin was immobilized. Herein, 200 nM Nampt and the controls, i.e., RBP4, adiponectin, resistin, vaspin, and HAS, were reacted for 30 minutes in respective buffer solutions (100 mM NaCl, 2 mM MgCl₂, 5 mM KCl, 1 mM CaCl₂, and 20 mM Tris-Cl buffer solution containing 0.02% Tween 20, pH 7.6), and non-bound proteins were washed off with the same buffer solutions.

Binder | binding result
G26 (ssDNA) DNA: CGTACGGAATTCGCTAGCATCGGGTGCAGAGTCGGAGCTAACGGCAGCGGATCCGAGCTCCACGTG | binds
G9 (ssDNA) DNA: CGTACGGAATTCGCTAGCGGGGATGGGCCGCTCTGCAGAATGTTCTGTGGATCCGAGCTCCACGTG | binds
G32 (ssDNA) DNA: CGTACGGAATTCGCTAGCGTGGACTGGCGGAAATCTTGGTATGCCCATGGATCCGAGCTCCACGTG | binds
G21 (ssDNA) DNA: CGTACGGAATTCGCTAGCGGGTTCGGGACGGATGAACGTGATAGCTGAGGATCCGAGCTCCACGTG | binds
G15 (ssDNA) DNA: CGTACGGAATTCGCTAGCAGCCGGCGGGTGCTCAATGTTGGGGGTTGGGATCCGAGCTCCACGTG | binds
G54 (ssDNA) DNA: CGTACGGAATTCGCTAGCGTGGCGGGGCGCGGGTGCCGGAGTTGATGTGGATCCGAGCTCCACGTG | binds
G37 (ssDNA) DNA: CGTACGGAATTCGCTAGCGGGCGATGTGCGGAATGTGGGATTGCGGGTGGATCCGAGCTCCACGTG | binds
G39 (ssDNA) DNA: CGTACGGAATTCGCTAGCGGTTGCCGTGCGGCGTGCGAGTTGGGCCTTGGATCCGAGCTCCACGTG | binds
G56 (ssDNA) DNA: CGTACGGAATTCGCTAGCCCGTGGGGTAGCGGGGTCGTGTGATATGTGGATCCGAGCTCCACGTG | binds
G12 (ssDNA) DNA: CGTACGGAATTCGCTAGCGGGTGCCGTGGCACGAGGCCGTGGTCCAGGGGATCCGAGCTCCACGTG | binds
G4 (ssDNA) DNA: CGTACGGAATTCGCTAGCGTGATGTGGGGGTACGCTCGTGGCAGGCTTGGATCCGAGCTCCACGTG | binds
G27 (ssDNA) DNA: CGTACGGAATTCGCTAGCGGGTGGAGTACGTGGGGGTCATCCTGTGTGGGATCCGAGCTCCACGTG | binds

Biological target: T1, Nampt (nicotinamide …)
Test: SPR; aptamer immobilized; same buffer pH 7.6
Settings: tags: AdipoGen AG-40A-0031; chain copies: 2
Experimental: as §1

Binder | Kd [nM]
G40 (ssDNA) DNA: CGTACGGAATTCGCTAGCCGGGGTGGGAACCAGTCTTGCGCGGGTGACGGATCCGAGCTCCACGTG | 114
G35 (ssDNA) DNA: CGTACGGAATTCGCTAGCGGTGACGGACGTGGGGTGCACGAAGGGAGGGGATCCGAGCTCCACGTG | 117

Source: patent US20140363808, “[…] […] METHOD BASED ON […] WITHOUT TARGET IMMOBILIZATION AND THE […] OBTAINED FROM THE METHOD” (KOREA UNIVERSITY RESEARCH AND BUSINESS FOUNDATION, published 2014)
